Measured values taken from patent US20240255522A1 (published 2024).
Where no end group is shown, it is not given here.

Assays:
[1] = molecular target: HLA-DRB1*01:01 MHCII molecule (human); test: saturation binding ELISA; pH 5; second sample
[2] = molecular target: HLA-DRB1*01:01 MHCII molecule (human); test: saturation binding ELISA
[3] = molecular target: HLA-DRB1*04:01 MHCII molecule (human); test: saturation binding ELISA
[4] = molecular target: HLA-DRB1*15:01 MHCII molecule (human); test: saturation binding ELISA
[5] = molecular target: HLA-DRB1*08:01 MHCII molecule (human); test: saturation binding ELISA
[6] = molecular target: HLA-DRB1*09:01 MHCII molecule (human); test: saturation binding ELISA
[7] = molecular target: HLA-DRB1*11:01 MHCII molecule (human); test: saturation binding ELISA
[8] = molecular target: HLA-DRB1*01:01 MHCII molecule (human); test: saturation binding ELISA; pH 5
[9] = molecular target: HLA-DRB1*04:01 MHCII molecule (human); test: saturation binding ELISA; pH 5
[10] = molecular target: HLA-DRB1*15:01 MHCII molecule (human); test: saturation binding ELISA; pH 5
[11] = molecular target: HLA-DRB1*08:01 MHCII molecule (human); test: saturation binding ELISA; pH 5
[12] = molecular target: HLA-DRB1*09:01 MHCII molecule (human); test: saturation binding ELISA; pH 5
[13] = molecular target: HLA-DRB1*11:01 MHCII molecule (human); test: saturation binding ELISA; pH 5

## PVSKMRMATPLLMQA (also: biotinylated, position not given here) [biotinylated high affinity huCLIP]
[1]
  Kd: 8.7 nM
[2]
  Kd: 6.09 nM
[3]
  Kd: 183 nM
[4]
  Kd: 109 nM
[5]
  Kd: 14.4 nM
[6]
  Kd: 510 nM
[7]
  Kd: 24.5 nM
[8]
  Kd: 7.1 nM
[9]
  Kd: 200 nM
[10]
  Kd: 87.9 nM
[11]
  Kd: 16.8 nM
[12]
  Kd: 380 nM
[13]
  Kd: 30.9 nM
